We go through three molecules from publication PMC13246001, “Membrane binding controls the ATPase cycle and localization of MinD in Bacillus subtilis” (eLife, 2026).

In series [1] the target is His-MinD (B. subtilis MinD, N-terminally His-tagged) (B. subtilis) (UniProt Q01464).
Substrate in series [2]: Nc1ncnc2c1ncn2[C@@H]1O[C@H](COP(=O)(O)OP(=O)(O)OP(=O)(O)O)[C@@H](O)[C@H]1O
Nature of the series: EnzChek phosphate release assay. Format: biochemical, Bacillus subtilis. The note with it: 10 µM MinD, E. coli total lipid liposomes 0.2 mg/ml, Mg2+, 37 °C, HEPES-KOH pH 7.2 protein/liposome buffer.

Series [3] concerns the molecule itself. Description: SEC; Superdex200 Increase 10/300 GL, 0.75 ml/min, buffer C (50 mM HEPES-KOH, 150 mM KCl, 10% glycerol, 0.1 mM EDTA, pH 7.2) with 0.4 mM TCEP and 0.2 mM Mg2+-ADP; column calibrated with a gel filtration standard. (In general: In gel filtration, larger molecules generally elute earlier.)

Numbering of substitutions follows the chain as printed. Numbers in names are those of the source.

“His-PDZ (soluble C-terminal PDZ domain of B. subtilis MinJ with N-terminal His-tag) (from UniProt O34375 1-397) (domain or fragment)”: in series [1], the relative ATPase activity (EnzChek phosphate release) of 6 µM His-MinD in the presence of 1, 3 and 5 µM His-PDZ, 0.2 mg/ml liposomes, 2 mM Mg2+-ATP; His-MinD alone = 1; highest value at 3 µM (relative activity) stood at 1.37.

B1: His-MinD (Bacillus subtilis subsp. subtilis str. 168) (protein)
chain: MGEAIVITSGKGGVGKTTTSANLGTALAILGKRVCLVDTDIGLRNLDVVMGLENRIIYDLVDVVEGRCKMHQALVKDKRFDDLLYLMPAAQTSDKTAVAPEQIKNMVQELKQEFDYVIIDCPAGIEQGYKNAVSGADKAIVVTTPEISAVRDADRIIGLLEQEENIEPPRLVVNRIRNHLMKNGDTMDIDEIVQHLSIDLLGIVADDDEVIKASNHGEPIAMDPKNRASIAYRNIARRILGESVPLQVLEEQNKGMMAKIKSFFGVRS
notes: full-length MinD, N-terminal His-tag kept (pET-28a NdeI/XhoI, plasmid NAP013), expressed in E. coli BL21(DE3)pLysS; monomer in ADP, dimerizes in ATPase cycle
As a reminder, the Km is the substrate concentration at which the rate is half of its maximum. A word on the kcat: it is the maximal rate divided by the concentration of active sites. As to B1, in series [2], the Km turned out to be 173 µM and the turnover number (kcat) amounted to 0.01008 s⁻¹.

B2: His-MinD-D40A (enzyme, B. subtilis, UniProt Q01464 1-268, looked up)
chain: B1 chain with D40A
notes: MinD of Bacillus subtilis 168 with D40A, made by site-directed mutagenesis of plasmid NAP013 (pET-28a-minD); Same construct as m1 but for the mutation; also called locked dimer; pET-28a-minD-D40A; source: E. coli BL21(DE3)/pLysS, purified (Ni-NTA, SEC) with Mg2+-ADP in the buffers; not shown: His-tag, N-terminal, kept
Turning to B2, the binding result in series [3] was “binds”.
